Assay results from PMC10440475 (Heliyon, 2023).
“And” between values parts separate entries of the source, which are not always exact repeats. Equal entries are not always repeated.

Target: the molecule itself
Assay: PFO-PAGE

B1: eGFP-fused Shaker potassium channel protein (natural protein)
chain: MAAVAGLYGLGEDRQHRKKQQQQQQHQKEQLEQKEEQKKIAERKLQLREQQLQRNSLDGYGSLPKLSSQDEEGGAGHGFGGGPQHFEPIPHDHDFCERVVINVSGLRFETQLRTLNQFPDTLLGDPARRLRYFDPLRNEYFFDRSRPSFDAILYYYQSGGRLRRPVNVPLDVFSEEIKFYELGDQAINKFREDEGFIKEEERPLPDNEKQRKVWLLFEYPESSQAARVVAIISVFVILLSIVIFCLETLPEFKHYKVFNTTTNGTKIEEDEVPDITDPFFLIETLCIIWFTFELTVRFLACPNKLNFCRDVMNVIDIIAIIPYFITLATVVAEEEDTLNLPKAPVSPQDKSSNQAMSLAILRVIRLVRVFRIFKLSRHSKGLQILGRTLKASMRELGLLIFFLFIGVVLFSSAVYFAEAGSENSFFKSIPDAFWWAVVTMTTVGYGDMTPVGVWGKIVGSLCAIAGVLTIALPVPVIVSNFNYFYHRETDQEEMQSQNFNHVTSCPYLPGTLGQHMKKSSLSESSSDMMDLDDGVESTPGLTETHPGRSAVAPFLGAQQQQQQPVASSLSMSIDKQLQHPLQQLTQTQLYQQQQQQQQQQQNGFKQQQQQTQQQLQQQQSHTINASAAAATSGSGSSGLTMRHNNALAVSIETDV
stoichiometry N: 2 and 4
